From patent US20030134325A1

Target: mouse immunoglobulin (MIgG)
Experiment: binding to BIOMAG-MIgG; fluorescence

How did the % specific binding turn out when “GAM antibody conjugated by glutaraldehyde to formaldehyde-stabilized phycobilisomes” was run?
Its % specific binding is 60%.
